The chains are these.
T1: serum resistance-associated protein (SRA) from Trypanosoma brucei rhodesiense, recombinant SRA (SEQ ID NO: … (Trypanosoma brucei rhodesiense, UniProt O96637 31-274))
T1 construct: also called SRA protein
T1 sequence: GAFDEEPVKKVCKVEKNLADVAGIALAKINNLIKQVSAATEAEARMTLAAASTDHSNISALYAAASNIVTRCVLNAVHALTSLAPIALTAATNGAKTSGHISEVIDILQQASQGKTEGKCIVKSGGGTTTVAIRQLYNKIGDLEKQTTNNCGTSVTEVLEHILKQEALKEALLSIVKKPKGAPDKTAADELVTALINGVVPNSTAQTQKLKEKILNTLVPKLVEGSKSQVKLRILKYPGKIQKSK

T2: SRA.mmh
T2 construct: also called SRA.mmh (CHO)
T2 antigen: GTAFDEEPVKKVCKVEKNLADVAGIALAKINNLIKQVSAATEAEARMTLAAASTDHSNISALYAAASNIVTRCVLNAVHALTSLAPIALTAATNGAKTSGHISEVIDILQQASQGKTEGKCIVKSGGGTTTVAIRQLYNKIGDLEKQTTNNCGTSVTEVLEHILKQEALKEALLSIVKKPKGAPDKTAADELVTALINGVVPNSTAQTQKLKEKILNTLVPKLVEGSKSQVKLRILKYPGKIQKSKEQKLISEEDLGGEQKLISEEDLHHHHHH

B1: H2bM10093N (antibody, V domains shown)
VH: EVQLVESGGGLVKPGGSLRLSCVASGFTLSGYSMNWVRQAPGKGLEWVSSISTSSSYIYYADSVQGRFTISRDNAKNSLYLQMNSLRAEDTAVYYCVRKGANWIYFDYWGQGTLVTVSS
VL: DIQMTQSPSSVSASVGDRVTITCRASQGISSLLAWFQQKPGKAPNLLIYAASSLQSGVPSRFSGSGSGTDFTLTISSLQPEDFATYYCQQAKSFPFTFGPGTKVDIK
notes: Chimeric antibody, human variable domains and mouse constant domains; also called H2aM10093N; H2M10093N
B2: H1H10061P (antibody, V domains shown)
VH: QVQLVESGGGVVQPGNSLRLSCAASGFTFSAYGMHWVRQAPGKGLEWVAVISYDGSNEFYADSVKGRFTIFRDNSKNMLYLQMNSLRVEDTSIYYCAKDRGLGVYYFFYGMDVWGQGTTVTVSS
VL: DIVMTQSPDSLVVSLGERATINCKSSQSLLYSSSNNNYLTWYQQKPGRPPKLLIYWASTRESGVPDRFSGSGSGTDFTLTISSLQAEDVAIYYCQQNYITPLTFGGGTKVEIK
notes: Fully human antibody with human IgG1 Fc (prefix H1H)
B3: H1H10041P (antibody, V domains shown)
VH: QVQLVQSGAEVRKPGSSMKVSCATSGGNFRSYTINWVRQAPGQGLEWMGGVFPAVGTRIYAQKFQGRVTISTDESTTIAYMELNSLVPEDTAVYYCARSFNSPFDFWDQGTLVTVSS
VL: AIQMTQSPSSLSASVGDRVTLTCRASQDIRNDLHWFQQTPGKAPRLLIYSASNLQSGVPSRFSGTGSGTDFTLTFSSLQPEDFATYYCLQDYSYPYTFGQGTKLEIK
notes: as for B2
B4: H2aM10285N (antibody, V domains shown)
VH: QVQLVQSGAEVKKPGSSVKVSCKASGGTFTNFAISWVRQAPGLGLEWMGGIIPFVGTATYEQKFQGRVSITADESTRTAYMELSSLRYDDTAVYYCARWFSGSGGDFDYWGQGTLVTVSS
VL: AIQMTQSPSSLSASVGDRVTITCRASQGIGNDLGWYQQRRGTAPKLLIYAASSLQSGVPSRFSGSGSGTDFTLTISSLQPEDFATYYCLQDFTFPRTFGQGTKVEIK
notes: Chimeric antibody, human variable domains and mouse constant domains (mouse Fc, prefix H2aM); also called H2M10285N
B5: H1H10059P (antibody, V domains shown)
VH: QVQLVQSGAEVKKPGASVKVSCKAAGFTFIGYYIHWVRQAPGQGLEWMGWINSNSGDKDSAPKFQDRVTMTRDTSISTAYMELSRLRSDDTAVYFCAREGYNFGHFDYWGQGTLVTVSS
VL: DIVMTQTPLSSPVTLGQPASISCRSSQSLVHSDGNTYLSWLQQRPGQPPRLLIYKISNRLSGVPDRFSGSGAGTDFTLKISRVEGEDVGVYYCMQGTQFPRTFGQGTKVEIK
notes: as for B2
B6: apoL1 peptide (SEQ ID NO: 297) (peptide)
peptide: VYESKHLHEGAKSETAEELKKVAQELEEKLNILNNNYKILQADQEL
notes: Peptide of human apolipoprotein L1 used in the H/D exchange experiment

Where only a bound is given, the exact number is not on record here.

The first test concerns the target T1, serum resistance-associated protein …. Description: SPR, mAb captured, 25C, pH 7.4; pH 7.4, 25 C. On the technique in general: Surface plasmon resonance follows binding to a sensor surface in real time, without labels.
Procedure: (§1) Equilibrium dissociation constants (KD) values for SRA binding to selected purified anti-SRA monoclonal antibodies were determined using a real-time surface plasmon resonance biosensor assay on a Biacore T200 instrument. […] SRA binding to the captured monoclonal antibodies was monitored for 4 min while the dissociation of mAb bound SRA was monitored for 7 min. Two different assays formats were adopted to characterize kinetics of SRA binding—(i) regular kinetics and (ii) pH4.5 chase. Regular kinetics experiments were performed using pH7.4 buffer as the running buffer and both the association and dissociation was performed in pH7.4. For the chase format, association and dissociation were performed in pH7.4 buffer and pH4.5 buffer respectively.
(§2) Kinetic association (kₐ) and dissociation (kd) rate constants were determined by processing and fitting the data to a 1:1 binding model using Scrubber 2.0c curve fitting software. Only the dissociation rate (kd) was calculated for the pH4.5 chase experiment. Binding dissociation equilibrium constants (KD) and dissociative half-lives (t½) were calculated from the kinetic rate constants as:
On to B1, for which the off-rate (koff) came out at 0.000494 s⁻¹.

The next test shares this target. Description: SPR, mAb captured, pH 4.5, 25C; competitor biotin-apoL1 peptide.
Regarding B2, the “50 nM SRA + 5 uM apoL1 peptide binding (RU)” value is -5 RU and the “% Blocking, apoL1 peptide” value was determined as 100%.

For B1, the “50 nM SRA + 5 uM apoL1 peptide binding (RU)” value stood at 4 RU and the “% Blocking, apoL1 peptide” value turned out to be 97%.

Consider B3, for which the “50 nM SRA + 5 uM apoL1 peptide binding (RU)” value is 3 RU and the “% Blocking, apoL1 peptide” value was 97%.

On to B4, for which the “50 nM SRA + 5 uM apoL1 peptide binding (RU)” value worked out at 8 RU and the “% Blocking, apoL1 peptide” value turned out to be 94%.

For the molecule B5, the “50 nM SRA + 5 uM apoL1 peptide binding (RU)” value was -9 RU and the “% Blocking, apoL1 peptide” value came to 100%.

The next test shares this target. Description: SPR, mAb captured, 25C, assoc. pH 7.4, dissoc. pH 4.5.
Procedure: as §1, §2
On to B2, for which the “t ½” value stood at 1.82 h.

As to B1, the “t ½” value turned out to be 0.02 h.

In the case of B3, the “t ½” value came to 2.75 h.

For the molecule B4, the “t ½” value was 0.0117 h.

Take B5: the “t ½” value was 0.617 h.

Another test has the same target. Description: H/D exchange MS, SRA-apoL1 peptide complex, pH 5.0.
B6: the binding result is “binds”.

For another test the target is unchanged. Description: SPR, 25C, t1/2 pH 7.4 over pH 4.5.
Procedure: as §1, §2
For B2, the “t ½ ratio pH 7.4/pH 4.5” value is at least 2.

Turning to B1, the “t ½ ratio pH 7.4/pH 4.5” value came to 20.

Take B3: the “t ½ ratio pH 7.4/pH 4.5” value is at least 1.

For B4, the “t ½ ratio pH 7.4/pH 4.5” value worked out at 124.

Consider B5, for which the “t ½ ratio pH 7.4/pH 4.5” value is at least 6.

The target is the same in a further test. Description: SPR, mAb captured, 50 nM SRA, pH 4.5, 25C.
Regarding B2, the “50 nM SRA binding (RU)” value is 79 RU.

As to B1, the “50 nM SRA binding (RU)” value was determined as 138 RU.

On to B3, for which the “50 nM SRA binding (RU)” value was found to be 88 RU.

Take B4: the “50 nM SRA binding (RU)” value worked out at 120 RU.

Take B5: the “50 nM SRA binding (RU)” value is 73 RU.

The target of another test is T2, SRA.mmh. The test can be described thus: Octet, SRA.mmh captured on anti-Penta-His tips, mAb-1 at 50 ug/mL for 5 min, 25 C, pH 7.4.
With B2, the “50 ug/mL mAb 1 Bound (nm)” value was 1.53 nm.

As to B1, the “50 ug/mL mAb 1 Bound (nm)” value came out at 1.48 nm.

B3: the “50 ug/mL mAb 1 Bound (nm)” value is 1.69 nm.

As for B4, the “50 ug/mL mAb 1 Bound (nm)” value is 1.53 nm.

Turning to B5, the “50 ug/mL mAb 1 Bound (nm)” value worked out at 1.24 nm.

A further test has as its target T2, SRA.mmh. Description: Octet, mAb-2 at 50 ug/mL on captured SRA.mmh after negative control α-PRLR H1H6800P as mAb-1 (row 32 (-)). A general note: BLI is a label-free optical method that tracks binding on a fibre tip over time.
As to B2, the “Binding of mAb-2 to SRA Pre-complexed with mAb-1” value (“Binding … with mAb-1” below) turned out to be 1.53.

Take B1: the “Binding … with mAb-1” value came to 1.32.

Regarding B3, the “Binding … with mAb-1” value is 1.57.

Regarding B4, the “Binding … with mAb-1” value came out at 1.24.

Regarding B5, the “Binding … with mAb-1” value amounted to 1.17.

The next test has as its target T1, serum resistance-associated protein …. The test can be described thus: SPR, mAb captured, 25C, pH 7.4.
Procedure: as §1, §2
B2: the Kd was at most 0.0308 nM, the kon came to 1.62e+06 M⁻¹ s⁻¹ and the “t ½” value is at least 3.85 h.

Regarding B1, the equilibrium dissociation constant (Kd) came out at 0.948 nM, the kon is 521000 M⁻¹ s⁻¹ and the “t ½” value was 0.383 h.

On to B3, for which the dissociation constant Kd was at most 0.0277 nM, the association rate constant (kon) was determined as 1.8e+06 M⁻¹ s⁻¹ and the “t ½” value was at least 3.85 h.

On to B4, for which the dissociation constant (Kd) was determined as 0.138 nM, the association rate constant (kon) is 1.03e+06 M⁻¹ s⁻¹ and the “t ½” value stood at 1.37 h.

Turning to B5, the dissociation constant (Kd) was at most 0.0318 nM, the kon came to 1.57e+06 M⁻¹ s⁻¹ and the “t ½” value is at least 3.85 h.

For another test the target is unchanged. The test can be described thus: SPR, mAb captured, pH 4.5, 25C; competitor biotin-mutant apoL1 peptide.
B2: the “50 nM SRA + 5 uM mutant apoL1 peptide binding (RU)” value is 75 RU and the “% Blocking, Mutant apoL1 peptide” value was determined as 5%.

As to B1, the “50 nM SRA + 5 uM mutant apoL1 peptide binding (RU)” value worked out at 122 RU and the “% Blocking, Mutant apoL1 peptide” value was determined as 12%.

With B3, the “50 nM SRA + 5 uM mutant apoL1 peptide binding (RU)” value worked out at 83 RU and the “% Blocking, Mutant apoL1 peptide” value stood at 5%.

On to B4, for which the “50 nM SRA + 5 uM mutant apoL1 peptide binding (RU)” value was 111 RU and the “% Blocking, Mutant apoL1 peptide” value amounted to 8%.

B5: the “50 nM SRA + 5 uM mutant apoL1 peptide binding (RU)” value is 65 RU and the “% Blocking, Mutant apoL1 peptide” value is 11%.

What is called koff is the first-order rate constant of dissociation. For orientation: Kd means the constant that tells how readily two partners part at equilibrium. Usually kon stands for the second-order rate constant of association.

Values taken from patent US20150376269A1 (Regeneron, published 2015).
